Laboratory results: patent US20070105771A1 (Y S THERAPEUTICS, published 2007)

Key:
Assay in all cases: peptide microarray
[1] = target: T1, human CD26-derived 13 mer peptide 70 (human)
T1 peptide: TWTGKEDIIYNGI
Method: (§1) The overnight incubation was followed by three washings with each of PBS buffer pH 7.5 and water. The microarrays were then scanned using ArrayWorx-Microarray Scanner.
(§2) The SPOT recognition software package ArrayPro was used for data analysis. The mean of signal intensities from 3 identical subarrays on each microarray image was used for data evaluation.

[2] = target: T2, human CD26-derived 13 mer peptide 71 (human)
T2 peptide: TGKEDIIYNGITD
Method: as §1, §2

[3] = target: T3, human CD26-derived 13 mer peptide 74 (human)
T3 peptide: IYNGITDWVYEEE
Method: as §1, §2

[4] = target: T4, human CD26-derived 13 mer peptide 77 (human)
T4 peptide: DWVYEEEVFSAYS
Method: as §1, §2

[5] = target: T5, human CD26-derived 13 mer peptide 81 (human)
T5 peptide: FSAYSALWWSPNG
Method: as §1, §2

[6] = target: T6, human CD26-derived 13 mer peptide 85 (human)
T6 peptide: WSPNGTFLAYAQF
Method: as §1, §2

[7] = target: T7, human CD26-derived 13 mer peptide 86 (human)
T7 peptide: PNGTFLAYAQFND
Method: as §1, §2

[8] = target: T8, human CD26-derived 13 mer peptide 87 (human)
T8 peptide: GTFLAYAQFNDTE
Method: as §1, §2

[9] = target: T9, human CD26-derived 13 mer peptide 89 (human)
T9 peptide: AYAQFNDTEVPLI
Method: as §1, §2

[10] = target: T10, human CD26-derived 13 mer peptide 96 (human)
T10 peptide: YSFYSDESLQYPK
Method: as §1, §2

[11] = target: T11, human CD26-derived 13 mer peptide 100 (human)
T11 peptide: LQYPKTVRVPYPK
Method: as §1, §2

[12] = target: T12, human CD26-derived 13 mer peptide 101 (human)
T12 peptide: YPKTVRVPYPKAG
Method: as §1, §2

[13] = target: T13, human CD26-derived 13 mer peptide 102 (human)
T13 peptide: KTVRVPYPKAGAV
Method: as §1, §2

[14] = target: T14, human CD26-derived 13 mer peptide 103 (human)
T14 peptide: VRVPYPKAGAVNP
Method: as §1, §2

[15] = target: T15, human CD26-derived 13 mer peptide 105 (human)
T15 peptide: YPKAGAVNPTVKF
Method: as §1, §2

[16] = target: T16, human CD26-derived 13 mer peptide 107 (human)
T16 peptide: GAVNPTVKFFVVN
Method: as §1, §2

[17] = target: T17, human CD26-derived 13 mer peptide 109 (human)
T17 peptide: PTVKFFVVNTDSL
Method: as §1, §2

[18] = target: T18, human CD26-derived 13 mer peptide 114 (human)
T18 peptide: DSLSSVTNATSIQ
Method: as §1, §2

[19] = target: T19, human CD26-derived 13 mer peptide 115 (human)
T19 peptide: LSSVTNATSIQIT
Method: as §1, §2

[20] = target: T20, human CD26-derived 13 mer peptide 123 (human)
T20 peptide: SMLIGDHYLCDVT
Method: as §1, §2

[21] = target: T21, human CD26-derived 13 mer peptide 127 (human)
T21 peptide: LCDVTWATQERIS
Method: as §1, §2

[22] = target: T22, human CD26-derived 13 mer peptide 130 (human)
T22 peptide: ATQERISLQWLRR
Method: as §1, §2

[23] = target: T23, human CD26-derived 13 mer peptide 8 (human)
T23 peptide: WISDHEYLYKQEN
Method: as §1, §2

[24] = target: T24, human CD26-derived 13 mer peptide 11 (human)
T24 peptide: YLYKQENNILVFN
Method: as §1, §2

[25] = target: T25, human CD26-derived 13 mer peptide 14 (human)
T25 peptide: NNILVFNAEYGNS
Method: as §1, §2

[26] = target: T26, human CD26-derived 13 mer peptide 17 (human)
T26 peptide: NAEYGNSSVFLEN
Method: as §1, §2

[27] = target: T27, human CD26-derived 13 mer peptide 18 (human)
T27 peptide: EYGNSSVFLENST
Method: as §1, §2

[28] = target: T28, human CD26-derived 13 mer peptide 20 (human)
T28 peptide: SSVFLENSTFDEF
Method: as §1, §2

[29] = target: T29, human CD26-derived 13 mer peptide 23 (human)
T29 peptide: NSTFDEFGHSIND
Method: as §1, §2

[30] = target: T30, human CD26-derived 13 mer peptide 34 (human)
T30 peptide: ILLEYNYVKQWRH
Method: as §1, §2

[31] = target: T31, human CD26-derived 13 mer peptide 39 (human)
T31 peptide: WRHSYTASYDIYD
Method: as §1, §2

[32] = target: T32, human CD26-derived 13 mer peptide 40 (human)
T32 peptide: HSYTASYDIYDLN
Method: as §1, §2

[33] = target: T33, human CD26-derived 13 mer peptide 42 (human)
T33 peptide: ASYDIYDLNKRQL
Method: as §1, §2

[34] = target: T34, human CD26-derived 13 mer peptide 48 (human)
T34 peptide: LITEERIPNNTQW
Method: as §1, §2

[35] = target: T35, human CD26-derived 13 mer peptide 51 (human)
T35 peptide: IPNNTQWVTWSPV
Method: as §1, §2

[36] = target: T36, human CD26-derived 13 mer peptide 52 (human)
T36 peptide: NNTQWVTWSPVGH
Method: as §1, §2

[37] = target: T37, human CD26-derived 13 mer peptide 54 (human)
T37 peptide: WVTWSPVGHKLAY
Method: as §1, §2

[38] = target: T38, human CD26-derived 13 mer peptide 57 (human)
T38 peptide: VGHKLAYVWNNDI
Method: as §1, §2

[39] = target: T39, human CD26-derived 13 mer peptide 60 (human)
T39 peptide: YVWNNDIYVKIEP
Method: as §1, §2

[40] = target: T40, human CD26-derived 13 mer peptide 65 (human)
T40 peptide: IEPNLPSYRITWT
Method: as §1, §2

[41] = target: T41, human CD26-derived 13 mer peptide 66 (human)
T41 peptide: PNLPSYRITWTGK
Method: as §1, §2

Mean Signal Value [1]: 1 | Mean Signal Value [2]: 0 | Mean Signal Value [3]: 0 | Mean Signal Value [4]: 13.7 | Mean Signal Value [5]: 35.4 | Mean Signal Value [6]: 1.02 | Mean Signal Value [7]: 0.524 | Mean Signal Value [8]: 0.0288 | Mean Signal Value [9]: 0 | Mean Signal Value [10]: 0.0144 | Mean Signal Value [11]: 0.00962 | Mean Signal Value [12]: 0.00481 | Mean Signal Value [13]: 0.0192 | Mean Signal Value [14]: 0 | Mean Signal Value [15]: 0 | Mean Signal Value [16]: 10.6 | Mean Signal Value [17]: 0 | Mean Signal Value [18]: 0.00481 | Mean Signal Value [19]: 0.0673 | Mean Signal Value [20]: 0.438 | Mean Signal Value [21]: 0.00962 | Mean Signal Value [22]: 4.3 | Mean Signal Value [23]: 0.736 | Mean Signal Value [24]: 5.78 | Mean Signal Value [25]: 0.00962 | Mean Signal Value [26]: 0.0625 | Mean Signal Value [27]: 0 | Mean Signal Value [28]: 0.0577 | Mean Signal Value [29]: 0.00481 | Mean Signal Value [30]: 15.7 | Mean Signal Value [31]: 55.7 | Mean Signal Value [32]: 32.2 | Mean Signal Value [33]: 0 | Mean Signal Value [34]: 12.1 | Mean Signal Value [35]: 0.856 | Mean Signal Value [36]: 0.12 | Mean Signal Value [37]: 13 | Mean Signal Value [38]: 9.67 | Mean Signal Value [39]: 0.0769 | Mean Signal Value [40]: 40.8 | Mean Signal Value [41]: 0.111
B1: rhuMAb 411 (antibody, human IgG1, kappa, V domains shown)
VH: EVQLVESGAGVKQPGGTLRLTCTASGFSLTTYGVHWVRQAPGKGLEWVGVIWGDGRTDYDAAFMSRVTISKDTSKSTVYLQMNSLRAEDTAVYYCMRNRHDWFDYWGQGTTVTVSS
VL: DILLTQSPSSLSATPGERATITCRASQGIRNNLNWYQQKPGQAPRLLIYYSSNLQSGVPSRFSGSGSGTDFTLTISRLQPEDVAAYYCQQSIKLPFTFGSGTKVEIKR
notes: also called X411
